In patent publication US20190100602A1 (INSERM INSTITUT NATIONAL DE LA SANT ET DE LA RECHERCHE M …, published 2019):
Like-named read-outs stand apart in the source and are kept apart here. Values belong to the binder of their own block, whether it stands above or below them.

Columns and labels:
[1] = target: T1, human antithrombin (human, UniProt P01008 33-464); experiment: cell-based or functional assay
[2] = target: T1, human antithrombin; experiment: cell-based or functional assay; remark: listed apart in the source
[3] = target: T1, human antithrombin; experiment: cell-based or functional assay; remark: listed apart in the source
[4] = target: T1, human antithrombin; experiment: cell-based or functional assay; remark: listed apart in the source
[5] = target: T1, human antithrombin; experiment: cell-based or functional assay; remark: listed apart in the source
[6] = target: T1, human antithrombin; experiment: BLI (Octet-QK), sdAb coupled to sensor, antithrombin 12.5-50 ug/ml; apparent KD
Method: The interaction between sdAbs KB-AT-001, KB-AT-002, KB-AT-003 and KB-AT-006 versus human antithrombin was further analyzed via biolayer-interferometry analysis using Octet-QK equipment in order to determine apparent dissociation constants (KD,app). To this end, sdAbs KB-AT-001, KB-AT-002, KB-AT-003 and KB-AT-006 were diluted in 0.1 M Mes (pH 5.0) to a concentration of 200 microgram/ml for coupling to EDC/NHS-activated amine-reactive biosensors (Fort6bio, Menlo Park, Calif., USA). Sensors were rehydrated in 0.2 ml 0.1 M MES, pH 5.0 for 300 sec. Sensors were then activated via incubation with 0.1 ml 0.2 M EDC/0.095 M NHS mixture for 300 sec and subsequently incubated with 0.1 ml sdAb-solution for 600 sec. […] Following this association phase, sensors were transferred to wells containing PBS-T and incubated for 900 sec, allowing dissociation of the antithrombin-sdAb complex. Obtained data were subsequently analyzed using Octet-QK data analysis software (Origin vs 4) to estimate KD,app.

[7] = target: T2, rabbit antithrombin (rabbit); experiment: ELISA, sdAb coated, plasma 1/4, bound antithrombin probed with polyclonal anti-antithrombin
T2 construct: Native protein in plasma diluted 1/4; also called rabbit AT; antithrombin in rabbit plasma
Method: (§1) sdAbs KB-AT-001, -002. -003, -004, -005, -006, and -007 were immobilized (10 microgram/ml) in 10 mM NaHCO₃, 50 mM Na2CO3 (pH 9.5) in a volume of 50 microliter in half-well microtiter plates (Greiner Bio-One, Les Ulis, France) for 16 h at 4° C. As a positive control, polyclonal anti-antithrombin antibodies (MATIII-EIA kit, Affinity biologicals, Ancaster Canada) were immobilized in a similar fashion. As a negative control, the anti-von Willebrand sdAb KB-VWF-006 was immobilized. After washing the wells three times with 100 microliter/well using Tris-buffered saline (pH 7.6) supplemented with 0.1% Tween-20 (TBS-T), wells were blocked with 100 microliter/well of TBS-T supplemented with 3% bovine serum albumin (BSA) for 30 min at 37° C. Wells were washed as described above, and subsequently the following plasma preparations (diluted ¼ in TBS-T/3% BSA, 100 microliter per well, 2 hours at 37° C.) were added to each of the immobilized sdAbs and both types of control wells: rabbit plasma, canine plasma, simian plasma, bovine plasma, porcine plasma, rat plasma, murine plasma and human plasma.
(§2) Wells were then washed three times with 100 microliter/well using TBS-T. Bound antithrombin was probed with peroxidase-labeled polyclonal anti-antithrombin antibodies (MATIII-EIA kit, Affinity biologicals, Ancaster Canada; diluted 1/100) for 2 hours at 37° C. with 50 microliter per well. Wells were then washed three times with 100 microliter/well using TBS-T. Residual peroxidase activity was detected by measuring peroxidase-mediated hydrolysis of 3,3′,5,5′-tetramethylbenzidine.
(§3) Negative binding (−) was defined as optical density (OD) being ≤0.1, moderate positive binding (+) was defined as OD being >0.1 and <0.5, strongly positive binding (++) was defined as OD being ≥0.5. […] All plasma preparations had moderate or strongly positive binding to the positive control (polyclonal anti-antithrombin antibodies).

[8] = target: T3, bovine antithrombin (bovine, UniProt P41361 33-465); experiment: as above
T3 construct: Native protein in plasma diluted 1/4; also called bovine AT; antithrombin in bovine plasma
T3 sequence (P41361 33-465): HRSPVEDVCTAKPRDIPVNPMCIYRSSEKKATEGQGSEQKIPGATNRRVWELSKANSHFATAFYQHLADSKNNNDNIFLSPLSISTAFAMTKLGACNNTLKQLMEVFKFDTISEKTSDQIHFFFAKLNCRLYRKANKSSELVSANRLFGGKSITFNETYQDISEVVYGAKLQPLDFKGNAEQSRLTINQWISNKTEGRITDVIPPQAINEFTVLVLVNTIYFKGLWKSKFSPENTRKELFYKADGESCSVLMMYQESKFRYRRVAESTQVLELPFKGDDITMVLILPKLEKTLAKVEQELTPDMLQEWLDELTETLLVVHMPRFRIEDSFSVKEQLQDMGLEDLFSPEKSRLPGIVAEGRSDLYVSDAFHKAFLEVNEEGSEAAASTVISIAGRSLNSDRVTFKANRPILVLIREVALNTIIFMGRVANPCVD
Method: as §1, §2, §3

[9] = target: T4, porcine antithrombin (porcine); experiment: as above
T4 construct: Native protein in plasma diluted 1/4; also called porcine AT; antithrombin in porcine plasma
Method: as §1, §2, §3

[10] = target: T5, canine antithrombin (canine); experiment: ELISA, sdAb coated, plasma 1/4, bound antithrombin probed with polyclonal anti-antithrombin; grade by OD
T5 construct: Native protein in plasma diluted 1/4; also called canine AT; antithrombin in canine plasma
Method: as §1, §2, §3

[11] = target: T6, simian antithrombin (simian); experiment: as above
T6 construct: Native protein in plasma diluted 1/4; also called simian AT; antithrombin in simian plasma
Method: as §1, §2, §3

[12] = target: T7, rat antithrombin (rat, UniProt Q8VHJ4); experiment: as above
T7 construct: Native protein in plasma diluted 1/4; also called rat AT; antithrombin in rat plasma
Method: as §1, §2, §3

[13] = target: T1, human antithrombin; experiment: as above
Method: as §1, §2, §3

[14] = target: T8, murine antithrombin (mouse, UniProt P32261 33-465); experiment: as above
T8 construct: also called mouse antithrombin; murine AT
T8 sequence (P32261 33-465 limits assumed): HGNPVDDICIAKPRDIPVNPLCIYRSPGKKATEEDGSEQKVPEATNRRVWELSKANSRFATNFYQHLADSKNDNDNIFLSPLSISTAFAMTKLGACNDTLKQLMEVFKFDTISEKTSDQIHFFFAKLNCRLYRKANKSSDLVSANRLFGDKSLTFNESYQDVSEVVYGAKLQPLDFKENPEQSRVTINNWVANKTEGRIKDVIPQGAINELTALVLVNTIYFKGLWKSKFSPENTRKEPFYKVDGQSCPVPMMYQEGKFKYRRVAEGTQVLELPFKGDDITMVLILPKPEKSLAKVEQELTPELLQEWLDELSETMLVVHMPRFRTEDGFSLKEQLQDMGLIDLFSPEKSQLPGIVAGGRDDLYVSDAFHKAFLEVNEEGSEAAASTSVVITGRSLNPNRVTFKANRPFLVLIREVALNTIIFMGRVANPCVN
Method: as §1, §2, §3

T1 sequence (P01008 33-464 limits assumed): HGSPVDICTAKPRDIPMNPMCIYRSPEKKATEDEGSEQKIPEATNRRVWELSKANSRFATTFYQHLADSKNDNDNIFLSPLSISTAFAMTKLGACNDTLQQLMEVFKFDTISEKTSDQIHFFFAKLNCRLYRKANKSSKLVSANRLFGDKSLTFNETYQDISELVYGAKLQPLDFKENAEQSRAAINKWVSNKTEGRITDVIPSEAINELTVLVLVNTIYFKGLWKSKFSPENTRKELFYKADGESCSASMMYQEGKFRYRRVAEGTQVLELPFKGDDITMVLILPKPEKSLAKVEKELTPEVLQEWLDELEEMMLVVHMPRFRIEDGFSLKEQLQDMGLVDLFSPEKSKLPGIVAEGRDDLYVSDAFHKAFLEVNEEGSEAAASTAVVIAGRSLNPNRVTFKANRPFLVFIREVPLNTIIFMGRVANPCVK

% antithrombin neutralization (thrombin amidolytic activity on S-2238, with unfractionated heparin) [1]: 99%
B1: KB-AT-1123 (bispecific antibody)
chain: QVQLQESGGGLVQAGGSLRLSCAASGRTFRNYVMGWFRQAPGKDPEFIAGINRSGAITYYGDSVKGRFTISRDNAKNTVSLQMNSLEPEDTAVYYCAAGETTWSIRRDDYDYWGQGTQVTVSSGGGSGGGSGGGSGGGSQVQLQESGGGLVQAGGSLRLSCAASGRTFRNYVMGWFRQAPGKDPEFIAGINRSGAITYYGDSVKGRFTISRDNAKNTVSLQMNSLEPEDTAVYYCAAGETTWSIRRDDYDYWGQGTQVTVSSGGGSGGGSGGGSGGGSQVQLVQSGGGLVQAGGSLRLSCAASGRTFNNNGMGWFRQAPGKEREFVAAISWSGGSTYYADSVKGRYIMSRDNAKNTVYLQMNSLKPEDTAVYYCAARTRYNSGLFSRNYDYWGQGTQVTVSSGGGSGGGSGGGSGGGSQVQLQESGGGLVQPGGSLRLSCAASALTFSSRAWAWYRQAPGKQRELVASITGGGTTNYADSVKGRFTISRDNAKNTVYLQMNSLKPEDTAVHYCNGYRYTYAWGQGTQVTQVTVSS

% antithrombin neutralization (thrombin amidolytic activity on S-2238, with unfractionated heparin) [1]: 26%
B2: KB-AT-115 (other)
chain: QVQLQESGGGLVQAGGSLRLSCAASGRTFRNYVMGWFRQAPGKDPEFIAGINRSGAITYYGDSVKGRFTISRDNAKNTVSLQMNSLEPEDTAVYYCAAGETTWSIRRDDYDYWGQGTQVTVSSGGGSGGGSGGGSGGGSQVQLQESGGGLVQAGGSLRLSCAASGRTFRNYVMGWFRQAPGKDPEFIAGINRSGAITYYGDSVKGRFTISRDNAKNTVSLQMNSLEPEDTAVYYCAAGETTWSIRRDDYDYWGQGTQVTVSSGGGSGGGSGGGSGGGSEVQLVESGGGLVQPGGSLRLSCEASGRDFNDAALGWSRQVPGKARETVAMITSGGVRNYAETVKDRFTISRDNAKNTVYLDMNNLQPDDTGVYYCKADSFKGDYDTSWYLYWGQGTQVTVSS

% antithrombin neutralization (thrombin amidolytic activity on S-2238, with unfractionated heparin) [2]: 47% | % antithrombin neutralization (factor Xa amidolytic activity on S-2765, with LMW-heparin) [3]: 68%
B3: KB-AT-002/003 (bispecific antibody)
chain: QVQLQESGGGLVQAGGSLRLSCAASGRTFNNNGMGWFRQAPGKEREFVAAISWSGGSTYYADSVKGRYIMSRDNAKNTVYLQMNSLKPEDTAVYYCAARTRYNSGLFSRNYDYWGQGTQVTVSSGGGSGGGSGGGSGGGSQVQLQESGGGLVQPGGSLRLSCAASALTFSSRAWAWYRQAPGKQRELVASITGGGTTNYADSVKGRFTISRDNAKNTVYLQMNSLKPEDTAVHYCNGYRYTYAWGQGTQVTVSS

% antithrombin neutralization (thrombin amidolytic activity on S-2238, with unfractionated heparin) [2]: 30% | % antithrombin neutralization (factor Xa amidolytic activity on S-2765, with LMW-heparin) [3]: 57%
B4: KB-AT-001/002 (bispecific antibody)
chain: QVQLQESGGGLVQAGGSLRLSCAASGRTFRNYVMGWFRQAPGKDPEFIAGINRSGAITYYGDSVKGRFTISRDNAKNTVSLQMNSLEPEDTAVYYCAAGETTWSIRRDDYDYWGQGTQVTVSSGGGSGGGSGGGSGGGSQVQLVQSGGGLVQAGGSLRLSCAASGRTFNNNGMGWFRQAPGKEREFVAAISWSGGSTYYADSVKGRYIMSRDNAKNTVYLQMNSLKPEDTAVYYCAARTRYNSGLFSRNYDYWGQGTQVTVSS

% antithrombin neutralization (thrombin amidolytic activity on S-2238, with unfractionated heparin) [1]: 97%
B5: KB-AT-113 (bispecific antibody)
chain: QVQLQESGGGLVQAGGSLRLSCAASGRTFRNYVMGWFRQAPGKDPEFIAGINRSGAITYYGDSVKGRFTISRDNAKNTVSLQMNSLEPEDTAVYYCAAGETTWSIRRDDYDYWGQGTQVTVSSGGGSGGGSGGGSGGGSQVQLQESGGGLVQAGGSLRLSCAASGRTFRNYVMGWFRQAPGKDPEFIAGINRSGAITYYGDSVKGRFTISRDNAKNTVSLQMNSLEPEDTAVYYCAAGETTWSIRRDDYDYWGQGTQVTVSSGGGSGGGSGGGSGGGSQVQLQESGGGLVQPGGSLRLSCAASALTFSSRAWAWYRQAPGKQRELVASITGGGTTNYADSVKGRFTISRDNAKNTVYLQMNSLKPEDTAVHYCNGYRYTYAWGQGTQVTQVTVSS

percentage of neutralization of antithrombin-mediated factor Xa inhibition, with LMW-heparin [4]: < 15% | percentage of neutralization of antithrombin-mediated thrombin inhibition, with unfractionated heparin [4]: < 5% | % antithrombin neutralization (thrombin amidolytic activity on S-2238, no heparin) [5]: 67% | Kd [6]: 0.4 nM | OD [7]: ≤ 0.1 od | OD [8]: ≤ 0.1 od | OD [9]: ≤ 0.1 od | OD [10]: 0.1 to 0.5 od | OD [11]: ≥ 0.5 od | OD [12]: 0.1 to 0.5 od | OD [13]: ≥ 0.5 od | OD [14]: ≥ 0.5 od
B6: KB-AT-003 (VHH)
VHH: QVQLVQSGGGLVQPGGSLRLSCAASALTFSSRAWAWYRQAPGKQRELVASITGGGTTNYADSVKGRFTISRDNAKNTVYLQMNSLKPEDTAVHYCNGYRYTYAWGQGTQVTVSS
notes: Monovalent anti-antithrombin single-domain antibody; also called sdAb KB-AT-003

% antithrombin neutralization (thrombin amidolytic activity on S-2238, with unfractionated heparin) [1]: 29%
B7: KB-AT-112 (bispecific antibody)
chain: QVQLQESGGGLVQAGGSLRLSCAASGRTFRNYVMGWFRQAPGKDPEFIAGINRSGAITYYGDSVKGRFTISRDNAKNTVSLQMNSLEPEDTAVYYCAAGETTWSIRRDDYDYWGQGTQVTVSSGGGSGGGSGGGSGGGSQVQLQESGGGLVQAGGSLRLSCAASGRTFRNYVMGWFRQAPGKDPEFIAGINRSGAITYYGDSVKGRFTISRDNAKNTVSLQMNSLEPEDTAVYYCAAGETTWSIRRDDYDYWGQGTQVTVSSGGGSGGGSGGGSGGGSQVQLVQSGGGLVQAGGSLRLSCAASGRTFNNNGMGWFRQAPGKEREFVAAISWSGGSTYYADSVKGRYIMSRDNAKNTVYLQMNSLKPEDTAVYYCAARTRYNSGLFSRNYDYWGQGTQVTVSS

% antithrombin neutralization (thrombin amidolytic activity on S-2238, with unfractionated heparin) [2]: 56% | % antithrombin neutralization (factor Xa amidolytic activity on S-2765, with LMW-heparin) [3]: 62%
B8: KB-AT-001/003 (bispecific antibody)
chain: QVQLQESGGGLVQAGGSLRLSCAASGRTFRNYVMGWFRQAPGKDPEFIAGINRSGAITYYGDSVKGRFTISRDNAKNTVSLQMNSLEPEDTAVYYCAAGETTWSIRRDDYDYWGQGTQVTVSSGGGSGGGSGGGSGGGSQVQLQESGGGLVQPGGSLRLSCAASALTFSSRAWAWYRQAPGKQRELVASITGGGTTNYADSVKGRFTISRDNAKNTVYLQMNSLKPEDTAVHYCNGYRYTYAWGQGTQVTQVTVSS

% antithrombin neutralization (thrombin amidolytic activity on S-2238, with unfractionated heparin) [2]: 28% | % antithrombin neutralization (factor Xa amidolytic activity on S-2765, with LMW-heparin) [3]: 34%
B9: KB-AT-001/005 (other)
chain: QVQLQESGGGLVQAGGSLRLSCAASGRTFRNYVMGWFRQAPGKDPEFIAGINRSGAITYYGDSVKGRFTISRDNAKNTVSLQMNSLEPEDTAVYYCAAGETTWSIRRDDYDYWGQGTQVTVSSGGGSGGGSGGGSGGGSEVQLVESGGGLVQPGGSLRLSCEASGRDFNDAALGWSRQVPGKARETVAMITSGGVRNYAETVKDRFTISRDNAKNTVYLDMNNLQPDDTGVYYCKADSFKGDYDTSWYLYWGQGTQVTVSS
